Experimental data from patent publication US20240287202A1 (XYPHOS BIOSCIENCES, published 2024).
Substitutions are numbered along the chain they refer to. Numbers in names are those of the source.

Legend:
[1] = target: T1, mouse NKG2D (mouse, UniProt O54709 94-232, limits assumed); assay: ELISA on mouse NKG2D, absorbance against nM MicAbody
T1 construct: also called mouse wild-type NKG2D
T1 sequence (looked up): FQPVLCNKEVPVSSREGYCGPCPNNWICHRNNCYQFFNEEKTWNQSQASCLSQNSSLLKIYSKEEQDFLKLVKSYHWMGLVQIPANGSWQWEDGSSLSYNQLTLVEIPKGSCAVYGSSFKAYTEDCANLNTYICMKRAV

[2] = target: Fc-iNKG2D.YA (NKG2D ectodomain Y152A fused to the C-terminus of human IgG1 Fc) (human) (UniProt P26718); assay: ELISA; wells coated with Fc-iNKG2D.YA, R3Mab heavy-chain MicAbody titrated
[3] = target: T2, A1-A2 domain of human MICB with C-terminal 6x-His tag (monomer) (human, UniProt Q29980 24-205); assay: Octet BLI, response against concentration (legend: monomeric ligands; axis on the sheet: nM Fc-NKG2D.wt)
T2 construct: range 24-205; also called MIC-His ligand
T2 sequence: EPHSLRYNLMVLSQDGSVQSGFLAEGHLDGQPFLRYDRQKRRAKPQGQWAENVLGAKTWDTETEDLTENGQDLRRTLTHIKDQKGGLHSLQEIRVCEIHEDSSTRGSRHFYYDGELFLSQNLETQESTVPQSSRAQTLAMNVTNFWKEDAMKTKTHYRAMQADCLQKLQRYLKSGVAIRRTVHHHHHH

[4] = target: T3, A1-A2 domain of human ULBP3 with C-terminal 6x-His tag (monomer) (human, UniProt Q9BZM4 30-212); assay: as above
T3 construct: range 30-212; also called MIC-His ligand
T3 sequence: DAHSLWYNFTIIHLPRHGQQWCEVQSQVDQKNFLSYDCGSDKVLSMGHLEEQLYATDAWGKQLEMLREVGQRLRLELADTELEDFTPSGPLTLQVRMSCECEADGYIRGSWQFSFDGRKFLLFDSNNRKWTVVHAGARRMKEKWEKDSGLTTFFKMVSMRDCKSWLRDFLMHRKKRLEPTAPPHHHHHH

[5] = target: T4, ULBP1-Fc (R&D Systems) (human, UniProt Q9BZM6 26-216); assay: ELISA; ligand-Fc coated, biotinylated Fc-wtNKG2D, streptavidin-HRP (legend: the Fc-NKG2D is titrated; axis on the sheet: nM ligand-Fc)
T4 construct: Bought; also called Ligand-Fc fusion; not shown: Fc of the bought fusion; not described
T4 sequence (looked up): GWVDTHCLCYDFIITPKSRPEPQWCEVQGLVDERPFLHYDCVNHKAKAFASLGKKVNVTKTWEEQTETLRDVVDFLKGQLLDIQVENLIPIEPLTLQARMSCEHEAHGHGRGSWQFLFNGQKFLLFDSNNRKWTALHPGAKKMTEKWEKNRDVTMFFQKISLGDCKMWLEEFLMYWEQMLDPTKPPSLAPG

[6] = target: T5, ULBP3-Fc (R&D Systems) (human, UniProt Q9BZM4 30-217); assay: as above
T5 construct: Bought; also called Ligand-Fc fusion; not shown: Fc of the bought fusion; not described
T5 sequence (looked up): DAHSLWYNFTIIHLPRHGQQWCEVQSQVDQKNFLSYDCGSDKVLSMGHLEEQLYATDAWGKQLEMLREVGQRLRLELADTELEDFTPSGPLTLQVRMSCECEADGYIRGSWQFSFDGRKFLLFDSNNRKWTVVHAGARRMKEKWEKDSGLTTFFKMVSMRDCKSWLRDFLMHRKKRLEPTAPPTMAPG

[7] = target: T6, MICB-Fc (R&D Systems) (human, UniProt Q29980 23-298, limits assumed); assay: as above
T6 construct: Bought; also called Ligand-Fc fusion; not shown: Fc of the bought fusion; not described
T6 sequence (looked up): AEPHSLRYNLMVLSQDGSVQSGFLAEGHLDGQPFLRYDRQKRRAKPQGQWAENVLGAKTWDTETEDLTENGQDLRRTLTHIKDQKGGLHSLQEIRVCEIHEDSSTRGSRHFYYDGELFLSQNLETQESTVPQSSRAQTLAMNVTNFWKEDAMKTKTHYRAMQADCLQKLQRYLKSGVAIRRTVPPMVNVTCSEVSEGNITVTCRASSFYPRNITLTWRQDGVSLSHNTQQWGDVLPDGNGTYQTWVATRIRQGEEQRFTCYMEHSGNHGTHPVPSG

[8] = target: T7, MICA-Fc (R&D Systems) (human, UniProt Q29983 24-308, limits assumed); assay: as above
T7 construct: Bought; also called Ligand-Fc fusion; not shown: Fc of the bought fusion; not described
T7 sequence (looked up): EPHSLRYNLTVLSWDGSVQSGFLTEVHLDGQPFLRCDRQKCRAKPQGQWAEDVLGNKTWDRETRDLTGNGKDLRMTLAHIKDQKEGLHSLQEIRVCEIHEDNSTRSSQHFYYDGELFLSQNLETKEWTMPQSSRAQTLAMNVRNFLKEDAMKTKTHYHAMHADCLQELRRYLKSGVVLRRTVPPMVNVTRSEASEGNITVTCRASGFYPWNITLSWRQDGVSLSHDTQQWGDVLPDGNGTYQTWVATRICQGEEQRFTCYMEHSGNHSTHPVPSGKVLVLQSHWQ

[9] = target: T8, A1-A2 domain of human MICA*001 with C-terminal 6x-His tag (monomer) (human, UniProt Q29983 24-205); assay: Octet BLI; Fc-wtNKG2D captured on anti-human IgG Fc (AHC) tips, dilution series of His-tagged monomeric ligand
T8 construct: range 24-205; also called MIC-His ligand
T8 sequence: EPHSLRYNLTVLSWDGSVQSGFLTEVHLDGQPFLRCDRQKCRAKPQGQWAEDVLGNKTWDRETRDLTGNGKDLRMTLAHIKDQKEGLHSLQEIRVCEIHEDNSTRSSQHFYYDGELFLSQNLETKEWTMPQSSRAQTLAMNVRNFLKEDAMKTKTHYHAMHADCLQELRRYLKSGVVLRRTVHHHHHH
Excerpt: Note that all axes are to the same scale (Binding-0 nm, 0.4 nm. 0.8 nm, 1.2 nm (y-axis); Time-0 s, 50 s, 100 s, 150 s, 200 s, 250 s, 300 s, 350 s (x-axis). Data is representative of a single experiment.

[10] = target: T9, A1-A2 domain of human ULBP2 with C-terminal 6x-His tag (monomer) (human, UniProt Q9BZM5 29-212); assay: Octet BLI; Fc-wtNKG2D captured on AHC tips, dilution series of His-tagged monomeric ligand
T9 construct: range 29-212; also called wild-type ULBP2; MIC-His ligand
T9 sequence: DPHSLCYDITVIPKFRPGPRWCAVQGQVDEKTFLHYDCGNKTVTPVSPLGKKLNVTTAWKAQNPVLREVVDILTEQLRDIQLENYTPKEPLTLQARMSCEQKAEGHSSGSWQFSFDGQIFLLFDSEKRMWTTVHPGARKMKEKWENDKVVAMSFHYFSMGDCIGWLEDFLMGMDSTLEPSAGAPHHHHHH
Excerpt: (§1) YA. […] YA were captured with anti-human IgG Fc capture (AHC) biosensor tips then associated with a dilution series of ligand. Data are from single experiments.

[11] = target: T10, His-tagged monomeric ULBP2 R81W (human, UniProt Q9BZM5 29-212); assay: as above
T10 construct: range 29-212; Construct limits are stated only for wild-type ULBP2-His; position 81 counts on the mature protein, not on the UniProt entry
T10 sequence: T9 sequence with R78W
Excerpt: as §1

[12] = target: T11, Fc-iNKG2D.YA (NKG2D ectodomain Y152A fused to the C-terminus of human IgG1 Fc) (human, UniProt P26718 78-216); assay: ELISA; wells coated with Fc-iNKG2D.YA, Rituximab.LC-U2S3 titrated, HRP anti-human kappa
T11 construct: range 78-216; it is not tied by words to this Fc fusion; not shown: human IgG1 Fc
T11 sequence: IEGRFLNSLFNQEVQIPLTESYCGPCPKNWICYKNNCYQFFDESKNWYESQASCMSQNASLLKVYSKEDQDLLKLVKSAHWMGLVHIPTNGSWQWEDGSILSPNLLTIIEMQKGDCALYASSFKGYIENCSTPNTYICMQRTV

[13] = target: T11, Fc-iNKG2D.YA (NKG2D ectodomain Y152A …); assay: Octet BLI; Fc-iNKG2D.YA captured on AHC tips, two-fold dilution series of MicAbody from 50 nM
Excerpt: The y-axes corresponding to binding responses were set to the same scale for all sensograms.

[14] = target: Fc-wtNKG2D (wild-type NKG2D ectodomain fused to the C-terminus of human IgG1 Fc) (human) (UniProt P26718); assay: ELISA; wells coated with Fc-wtNKG2D, R3Mab heavy-chain MicAbody titrated

Trastuzumab.LC-Rae1b (bispecific antibody)
EC50 (read off the curve) [1]: 1 nM

B1: R3Mab (anti-FGFR3) heavy-chain C-terminal fusion of U2S3 (MicAbody) (bispecific antibody, part only; not given: R3Mab variable regions and Fc, IgG1, not shown: a dimerising Fc or GST)
heavy, part: GGGSEPHSLSYDITVIPKFRPGPRWCAVQGQVDEKTFLHYDCGQKTVTPVSPLGKKLQVTTAWKAQNPVLREVVDILTEQLWDIQLENYTPKEPLTLQARMSCEQKAEGHSSGSWQFSFDGQIFLLFDSEKRMWTTVHPGARKMKEKWENDKVVATKLYLWSMGDCIGWLEDFLMGMDSTLEPS
EC50 (read off the curve) [2]: 0.02 nM

B2: Fc-wtNKG2D (wild-type NKG2D ectodomain fused to the C-terminus of human IgG1 Fc) (Fc fusion)
chain: T11 sequence with A79Y
notes: range 78-216; Dimeric secreted protein from Expi293 cells; also called Fc-NKG2D; not shown: human IgG1 Fc
binding result [3]: binds
binding result [4]: binds
binding result [5]: binds
binding result [6]: binds
binding result [7]: binds
binding result [8]: binds
binding result [9]: binds
Kd [10]: 350 nM
Kd [11]: 8 nM

B3: Rituximab.LC-U2S3 MicAbody (U2S3 A1-A2 domain fused to the C-terminus of the rituximab kappa light chain) (bispecific antibody)
heavy: QVQLQQPGAELVKPGASVKMSCKASGYTFTSYNMHWVKQTPGRGLEWIGAIYPGNGDTSYNQKFKGKATLTADKSSSTAYMQLSSLTSEDSAVYYCARSTYYGGDWYFNVWGAGTTVTVSAA
light (part 1 of 2): QIVLSQSPAILSASPGEKVTMTCRASSSVSYIHWFQQKPGSSPKPWIYATSNLASGVPVRFSGSGSGTSYSLTISRVEAEDAATYYCQQWTSNPPTFGGGTKLEIK
light (part 2 of 2): APTSSSGGGGSEPHSLSYDITVIPKFRPGPRWCAVQGQVDEKTFLHYDCGQKTVTPVSPLGKKLQVTTAWKAQNPVLREVVDILTEQLWDIQLENYTPKEPLTLQARMSCEQKAEGHSSGSWQFSFDGQIFLLFDSEKRMWTTVHPGARKMKEKWENDKVVATKLYLWSMGDCIGWLEDFLMGMDSTLEPS
notes: also called Rit-S3; Ritux-S3; not shown: human IgG1 heavy-chain constant region, ADCC-deficient; human kappa light-chain constant region
EC50 (read off the curve) [12]: ~0.03 nM
Kd [13]: 0.01 nM

B4: R3Mab (anti-FGFR3) heavy-chain C-terminal fusion of wild-type ULBP2 (MicAbody) (bispecific antibody, part only; not given: R3Mab variable regions and Fc, IgG1, not shown: a dimerising Fc or GST)
heavy, part: GGGSDPHSLCYDITVIPKFRPGPRWCAVQGQVDEKTFLHYDCGNKTVTPVSPLGKKLNVTTAWKAQNPVLREVVDILTEQLRDIQLENYTPKEPLTLQARMSCEQKAEGHSSGSWQFSFDGQIFLLFDSEKRMWTTVHPGARKMKEKWENDKVVAMSFHYFSMGDCIGWLEDFLMGMDSTLEPSAG
EC50 (read off the curve) [14]: 0.4 nM

B5: R3Mab (anti-FGFR3) heavy-chain C-terminal fusion of ULBP2 R81W (MicAbody) (bispecific antibody, part only; not given: R3Mab variable regions and Fc, IgG1, not shown: a dimerising Fc or GST)
heavy, part: B4 heavy, part with R82W
EC50 (read off the curve) [14]: 0.02 nM
